{"source": "patent US7901879B2", "about": "“Lactoferrin in the treatment of malignant neoplasms and other hyperproliferative diseases” (Agennix Incorporated, priority 2002, dated 2011)", "key": {"[1]": {"tested_on": "NK-activity against YAC targets", "test": "Ex vivo NK activity of spleen NK cells against YAC targets (LDH release) after oral rhLF", "format": "in vivo, Balb/c naïve mice", "conditions": "for % Cytotoxicity Increased over ctrl: rhLF minus placebo; for % Cytotoxicity Final: oral 300 mg/kg/day 3 days", "procedure": "Balb/c naïve mice were treated orally with rhLF or placebo once a day for 3 days (see Table 4).\n(§1) On day 4, mice were sacrificed and spleens were collected. NK cells were separated using a magnetic bead cell sorting assay (MACS anti-NK-DX5) and counted. Cells were then tested in vitro for NK-activity against YAC targets using a lactate dehydrogenase (LDH) release test.\nas §1, with “Balb/c naïve mice were treated orally with rhLF or placebo once a” for “On”, “for 3 days. One day later (day 4),” for “4,”, “spleens” for “spleens were”"}, "[2]": {"tested_on": "metastatic cancer", "test": "Oral rhLF in human patients with metastatic cancer, tumor size by CT", "format": "in vivo", "procedure": "Recombinant human lactoferrin was orally administered to human patients with a range of metastatic cancer types that had failed standard chemotherapy in two different studies conducted in multiple centers in four countries (Argentina, Brazil, Chile, U.S.) RhLF was administered at doses of 1.5 to 9 grams daily in two divided doses in cycles of 14 each with a 14 day gap.\nTumor size progression was monitored through CT scans and tumor markers where available. CT scans were performed at baseline and after each 8-week period once treatment was initiated, and also compared with a pre-baseline scan conducted prior to enrollment in the study. Tumor markers are measured every 4 weeks. Blood samples were collected to measure subclasses of circulating lymphocytes and NK cell activity. Plasma, serum and blood cell extract samples were collected to measure circulating IL-18, IL-1, IL-2, and IL-4, IL-5, IL-10, IL-12 and IFN-γ."}}, "note": "Values joined by “and” are separate entries in the source; they are usually repeats but may differ in a detail not shown here. Identical values can stand only once. Marks after values point to notes of the source that are not given here.", "data": [{"molecule": "Recombinant human lactoferrin (protein, UniProt P02788 20-710, looked up, human lactoferrin produced recombinantly) Lactotransferrin: GRRRSVQWCAVSQPEATKCFQWQRNMRKVRGPPVSCIKRDSPIQCIQAIAENRADAVTLDGGFIYEAGLAPYKLRPVAAEVYGTERQPRTHYYAVAVVKKGGSFQLNELQGLKSCHTGLRRTAGWNVPIGTLRPFLNWTGPPEPIEAAVARFFSASCVPGADKGQFPNLCRLCAGTGENKCAFSSQEPYFSYSGAFKCLRDGAGDVAFIRESTVFEDLSDEAERDEYELLCPDNTRKPVDKFKDCHLARVPSHAVVARSVNGKEDAIWNLLRQAQEKFGKDKSPKFQLFGSPSGQKDLLFKDSAIGFSRVPPRIDSGLYLGSGYFTAIQNLRKSEEEVAARRARVVWCAVGEQELRKCNQWSGLSEGSVTCSSASTTEDCIALVLKGEADAMSLDGGYVYTAGKCGLVPVLAENYKSQQSSDPDPNCVDRPVEGYLAVAVVRRSDTSLTWNSVKGKKSCHTAVDRTAGWNIPMGLLFNQTGSCKFDEYFSQSCAPGSDPRSNLCALCIGDEQGENKCVPNSNERYYGYTGAFRCLAENAGDVAFVKDVTVLQNTDGNNNEAWAKDLKLADFALLCLDGKRKPVTEARSCHLAMAPNHAVVSRMDKVERLKQVLLHQQAKFGRNGSDCPDKFCLFQSETKNLLFNDNTECLARLHGKTTYEKYLGPQYVAGITNLKKCSTSPLLEACEFLRK", "values": [{"measurement": "relative increase of NK activity over placebo-treated animals", "setting": "[1]; 30:1 E:T ratio, p<0.05", "result": 243, "unit": "%"}, {"measurement": "% Cytotoxicity Increased over ctrl", "setting": "[1]; E:T ratio 3.7:1", "result": 0, "unit": "%"}, {"measurement": "% Cytotoxicity Increased over ctrl", "setting": "[1]; E:T ratio 7.5:1", "result": 0, "unit": "%"}, {"measurement": "% Cytotoxicity Increased over ctrl", "setting": "[1]; E:T ratio 15:1", "result": 1.3, "unit": "%"}, {"measurement": "% Cytotoxicity Increased over ctrl", "setting": "[1]; E:T ratio 30:1", "result": "7** %"}, {"measurement": "% Cytotoxicity Final", "setting": "[1]; E:T ratio 3.7:1", "result": 0, "unit": "%"}, {"measurement": "% Cytotoxicity Final", "setting": "[1]; E:T ratio 7.5:1", "result": 0.44, "unit": "%"}, {"measurement": "% Cytotoxicity Final", "setting": "[1]; E:T ratio 15:1", "result": 4.12, "unit": "%"}, {"measurement": "% Cytotoxicity Final", "setting": "[1]; E:T ratio 30:1, 300 mg/kg/day", "result": "10% and 9.81%"}, {"measurement": "% Cytotoxicity Final", "setting": "[1]; E:T ratio 30:1, listed as RhLF, 300 mg/kg/day", "result": 9.81, "unit": "%"}, {"measurement": "Post Treatment 1 % Growth", "setting": "[2]; Patient # 007, Lung, 7.5 weeks, pretreatment 160% (5.5 weeks)", "result": "13% (7.5)"}, {"measurement": "Post Treatment 2 % Growth", "setting": "[2]; Patient # 007, Lung, 8.5 weeks", "result": "12% (8.5)"}, {"measurement": "Post Treatment 2 % Growth", "setting": "[2]; Patient # 102, Ovarian, 8.5 weeks", "result": "−7% (8.5)"}, {"measurement": "Post Treatment 1 % Growth", "setting": "[2]; Patient # 102, Ovarian, 10.5 weeks, pretreatment 30% (21 weeks)", "result": "−5% (10.5)"}, {"measurement": "Post Treatment 2 % Growth", "setting": "[2]; Patient # 104, Gastric, 7 weeks", "result": "−5% (7)"}, {"measurement": "Post Treatment 1 % Growth", "setting": "[2]; Patient # 104, Gastric, 10 weeks, pretreatment 25% (5.5 weeks)", "result": "10% (10)"}, {"measurement": "Post Treatment 1 % Growth", "setting": "[2]; Patient # 106, Melanoma, 11 weeks, pretreatment 24% (19 weeks)", "result": "−18% (11)"}, {"measurement": "Post Treatment 2 % Growth", "setting": "[2]; Patient # 204, Breast, 6.5 weeks", "result": "0% (6.5)"}, {"measurement": "Post Treatment 1 % Growth", "setting": "[2]; Patient # 204, Breast, 10 weeks, pretreatment 40% (8 weeks)", "result": "0% (10)"}, {"measurement": "patients with stable disease by the RECIST criteria at the first post-treatment scan", "setting": "[2]; nine of nineteen evaluable patients, oral 1.5 to 9 grams daily", "result": 47, "unit": "%"}]}]}
